Assay results: publication PMC7057348

Legend:
Assay in all cases: SPR; Biacore T200; omalizumab, Fabs and scFv immobilised on CM5 chips by amine coupling; IgE-Fc injected in a twofold dilution series (100-0.4 nM), 20 µl/min, 240 s association, 900 s dissociation; 25°C; 20 mM HEPES pH 7.4, 150 mM NaCl, 0.005% (v/v) surfactant P20; biphasic model with one higher-affinity and one lower-affinity interaction
[1] = target: FabXol3 (omalizumab-derived Ser81Arg, Gln83Arg, Leu158Pro light-chain mutant Fab)
[2] = target: Omalizumab (intact anti-IgE monoclonal IgG1 antibody)
[3] = target: FabXol (wild-type omalizumab Fab)
[4] = target: scFvXol (omalizumab-derived scFv)
[5] = target: FabXol2 (omalizumab-derived Ser81Arg, Gln83Arg light-chain mutant Fab)

koff1 (biphasic model) [1]: 0.00033 s⁻¹
koff2 (biphasic model) [1]: 0.009 s⁻¹
kon1 (biphasic model) [1]: 970000 M⁻¹ s⁻¹
kon2 (biphasic model) [1]: 270000 M⁻¹ s⁻¹
koff1 (biphasic model) [2]: 0.0007 s⁻¹
koff2 (biphasic model) [2]: 0.012 s⁻¹
kon1 (biphasic model) [2]: 330000 M⁻¹ s⁻¹
kon2 (biphasic model) [2]: 290000 M⁻¹ s⁻¹
koff1 (biphasic model) [3]: 0.00056 s⁻¹
koff2 (biphasic model) [3]: 0.012 s⁻¹
kon1 (biphasic model) [3]: 570000 M⁻¹ s⁻¹
kon2 (biphasic model) [3]: 440000 M⁻¹ s⁻¹
koff1 (biphasic model) [4]: 0.00029 s⁻¹
koff2 (biphasic model) [4]: 0.0087 s⁻¹
kon1 (biphasic model) [4]: 690000 M⁻¹ s⁻¹
kon2 (biphasic model) [4]: 310000 M⁻¹ s⁻¹
koff1 (biphasic model) [5]: 0.00045 s⁻¹
koff2 (biphasic model) [5]: 0.011 s⁻¹
kon1 (biphasic model) [5]: 510000 M⁻¹ s⁻¹
kon2 (biphasic model) [5]: 330000 M⁻¹ s⁻¹
Substance: IgE-Fc (Fc region of immunoglobulin E) (domain or fragment)
